Data: patent US20230174653A1
Like-named read-outs stand apart in the source and are kept apart here.

What was measured:
[1] = target: T1, B7-H3 (CD276), endogenous on tumor cells (LM7, A549, U373) (UniProt Q5ZPR3); experiment: cell-based or functional assay
T1 sequence (looked up): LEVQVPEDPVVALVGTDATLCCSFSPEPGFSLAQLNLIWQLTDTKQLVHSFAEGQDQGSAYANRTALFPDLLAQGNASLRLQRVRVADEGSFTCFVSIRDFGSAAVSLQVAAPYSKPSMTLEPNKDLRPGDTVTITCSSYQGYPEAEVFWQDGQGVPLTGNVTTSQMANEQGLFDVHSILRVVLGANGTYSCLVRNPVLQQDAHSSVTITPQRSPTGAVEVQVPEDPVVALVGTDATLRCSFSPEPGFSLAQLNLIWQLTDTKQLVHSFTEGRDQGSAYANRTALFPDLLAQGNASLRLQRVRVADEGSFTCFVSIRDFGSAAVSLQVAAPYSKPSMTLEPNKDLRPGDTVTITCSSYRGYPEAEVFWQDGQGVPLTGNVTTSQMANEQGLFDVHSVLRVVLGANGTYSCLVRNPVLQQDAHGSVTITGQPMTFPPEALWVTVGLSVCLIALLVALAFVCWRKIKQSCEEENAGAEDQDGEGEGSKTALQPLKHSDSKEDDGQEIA

[2] = target: T1, B7-H3 (CD276), endogenous on tumor cells (LM7, A549, U373); experiment: cell-based or functional assay; remark: listed apart in the source

## CD8α/4-1BB B7-H3-CAR (second generation B7-H3-CAR with MGA271-derived scFv, CD8α hinge/transmembrane domain, 4-1BB costimulatory domain and CD3ζ), expressed on human T cells
[1]
  cytolysis of LM7 tumor cells, impedance assay (xCelligence), 1st stimulation, 0.5:1 T-cell to tumor cell ratio: 100%

## CD8α/CD28 B7-H3-CAR (second generation B7-H3-CAR with MGA271-derived scFv, CD8α hinge/transmembrane domain, CD28 costimulatory domain and CD3ζ), expressed on human T cells
[1]
  cytolysis of LM7 tumor cells, impedance assay (xCelligence), 1st stimulation: 100%
  cytolysis of LM7 tumor cells, impedance assay (xCelligence), 1st stimulation, 0.5:1 T-cell to tumor cell ratio: 100%

## CD8α/CD28.4-1BB third generation (3G) B7-H3-CAR (4-1BB signaling domain inserted into the CD8α/CD28-CAR), expressed on human T cells
[1]
  cytolysis of LM7 tumor cells, impedance assay (xCelligence), 1st stimulation: 100%

B1: CD28/4-1BB B7-H3-CAR (second generation B7-H3-CAR with MGA271-derived scFv, CD28 hinge/transmembrane domain, 4-1BB costimulatory domain and CD3ζ), expressed on … (protein)
chain: EVQLVESGGGLVQPGGSLRLSCAASGFTFSSFGMHWVRQAPGKGLEWVAYISSDSSAIYYADTVKGRFTISRDNAKNSLYLQMNSLRDEDTAVYYCGRGRENIYYGSRLDYWGQGTTVTVSSGGGGSGGGGSGGGGSDIQLTQSPSFLSASVGDRVTITCKASQNVDTNVAWYQQKPGKAPKALIYSASYRYSGVPSRFSGSGSGTDFTLTISSLQPEDFATYYCQQYNNYPFTFGQGTKLEIKIEVMYPPPYLDNEKSNGTIIHVKGKHLCPSPLFPGPSKPFWVLVVVGGVLACYSLLVTVAFIIFWVKRGRKKLLYIFKQPFMRPVQTTQEEDGCSCRFPEEEEGGCELRVKFSRSADAPAYQQGQNQLYNELNLGRREEYDVLDKRRGRDPEMGGKPRRKNPQEGLYNELQKDKMAEAYSEIGMKGERRRGKGHDGLYQGLSTATKDTYDALHMQALPPR
[2]
  cytolysis of LM7 tumor cells, impedance assay (xCelligence), 1st stimulation, 0.5:1 T-cell to tumor cell ratio: 100%

B2: CD28/CD28 B7-H3-CAR (second generation B7-H3-CAR with MGA271-derived scFv, CD28 hinge/transmembrane domain, CD28 costimulatory domain and CD3ζ), expressed on … (protein)
chain: EVQLVESGGGLVQPGGSLRLSCAASGFTFSSFGMHWVRQAPGKGLEWVAYISSDSSAIYYADTVKGRFTISRDNAKNSLYLQMNSLRDEDTAVYYCGRGRENIYYGSRLDYWGQGTTVTVSSGGGGSGGGGSGGGGSDIQLTQSPSFLSASVGDRVTITCKASQNVDTNVAWYQQKPGKAPKALIYSASYRYSGVPSRFSGSGSGTDFTLTISSLQPEDFATYYCQQYNNYPFTFGQGTKLEIKIEVMYPPPYLDNEKSNGTIIHVKGKHLCPSPLFPGPSKPFWVLVVVGGVLACYSLLVTVAFIIFWVRSKRSRLLHSDYMNMTPRRPGPTRKHYQPYAPPRDFAAYRSRVKFSRSADAPAYQQGQNQLYNELNLGRREEYDVLDKRRGRDPEMGGKPRRKNPQEGLYNELQKDKMAEAYSEIGMKGERRRGKGHDGLYQGLSTATKDTYDALHMQALPPR
[2]
  cytolysis of LM7 tumor cells, impedance assay (xCelligence), 1st stimulation, 0.5:1 T-cell to tumor cell ratio: 100%
